In the supplement of paper PMC9112550, “Optimization of the antimicrobial peptide Bac7 by deep mutational scanning” (BMC Biology, 2022):

Tested on: Escherichia coli TOP10
Experiment: shrunken log2 fold change of peptide-encoding DNA abundance (4.5 h post-induction vs induction); higher = less antimicrobial activity (less host growth inhibition)
Details: time post-induction: 4.5 h; library: site-saturation at positions 5, 18, 19, 20
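Note: peptides expressed intracellularly from a pBAD plasmid library in pooled LB shake-flask culture, induced with 0.3% L-arabinose, DNA abundance read by NGS, three biological replicates, DESeq2 with apeglm shrinkage.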

Sequence | shrunken log2 fold change
RRIRVRPPRLPRPRPRPDTDPRP | -0.646
RRIRRRPPRLPRPRPRPMNWPRP | 0.291
RRIRPRPPRLPRPRPRPCYYPRP | -0.436
RRIRIRPPRLPRPRPRPRFEPRP | 0.131
RRIRMRPPRLPRPRPRPRYAPRP | 0.467
RRIRGRPPRLPRPRPRPVCAPRP | 1.06
RRIRGRPPRLPRPRPRPGLYPRP | 0.341
RRIRFRPPRLPRPRPRPFSIPRP | -0.401
RRIRARPPRLPRPRPRPVDVPRP | -0.113
RRIRGRPPRLPRPRPRPYCSPRP | -0.0241
RRIRCRPPRLPRPRPRPMTQPRP | -0.188
RRIRIRPPRLPRPRPRPMMKPRP | -0.166
RRIRCRPPRLPRPRPRPLMGPRP | -0.214
RRIRVRPPRLPRPRPRPEMRPRP | 0.562
RRIRWRPPRLPRPRPRPPDNPRP | 0.318
RRIRNRPPRLPRPRPRPVRVPRP | 0.0666
RRIRGRPPRLPRPRPRPRREPRP | 0.381
RRIRIRPPRLPRPRPRPMEPPRP | -0.101
RRIRGRPPRLPRPRPRPAHCPRP | 1.06
RRIRTRPPRLPRPRPRPRFKPRP | 0.115
RRIRHRPPRLPRPRPRPKPDPRP | 0.0401
RRIRYRPPRLPRPRPRPMTNPRP | -1.55
RRIRGRPPRLPRPRPRPKALPRP | 0.0797
RRIRCRPPRLPRPRPRPRRDPRP | 0.0823
RRIRPRPPRLPRPRPRPQDNPRP | -0.548

Sequence | shrunken log2 fold change
RRIRSRPPRLPRPRPRPPIGPRP | 0.297
RRIRWRPPRLPRPRPRPSYDPRP | -0.256
RRIRCRPPRLPRPRPRPKHIPRP | -0.443
RRIRWRPPRLPRPRPRPKIFPRP | -0.249
RRIRFRPPRLPRPRPRPWVKPRP | -0.00968
RRIRYRPPRLPRPRPRPASWPRP | 0.299
RRIRHRPPRLPRPRPRPDTVPRP | 0.028
RRIRPRPPRLPRPRPRPEFQPRP | 0.0778
RRIRFRPPRLPRPRPRPNQTPRP | 0.275
RRIRARPPRLPRPRPRPMGMPRP | 0.211
RRIRERPPRLPRPRPRPTMQPRP | 0.0612
RRIRDRPPRLPRPRPRPYRAPRP | -0.118
RRIRARPPRLPRPRPRPDIWPRP | 0.69
RRIRMRPPRLPRPRPRPMDKPRP | 0.3
RRIRVRPPRLPRPRPRPCGWPRP | 0.302
RRIRLRPPRLPRPRPRPTCAPRP | 0.314
RRIRWRPPRLPRPRPRPCIVPRP | 0.0112
RRIRCRPPRLPRPRPRPIVVPRP | -0.34
RRIRCRPPRLPRPRPRPYCEPRP | -0.195
RRIRTRPPRLPRPRPRPVALPRP | 0.0946
RRIRDRPPRLPRPRPRPAPHPRP | 0.852
RRIRPRPPRLPRPRPRPPRMPRP | 0.412
RRIRIRPPRLPRPRPRPRREPRP | 0.123
RRIRMRPPRLPRPRPRPPDEPRP | 2.96
RRIRCRPPRLPRPRPRPTRGPRP | 0.807

Sequence | shrunken log2 fold change
RRIRLRPPRLPRPRPRPMHYPRP | -0.094
RRIRPRPPRLPRPRPRPISRPRP | 0.121
RRIRARPPRLPRPRPRPAAWPRP | 0.613
RRIRPRPPRLPRPRPRPVLQPRP | 0.162
RRIRARPPRLPRPRPRPHAHPRP | 0.254
RRIRPRPPRLPRPRPRPMQQPRP | -0.0524
RRIRQRPPRLPRPRPRPREIPRP | 0.115
RRIRSRPPRLPRPRPRPTMWPRP | 0.214
RRIRYRPPRLPRPRPRPTFLPRP | -0.495
RRIRERPPRLPRPRPRPSQQPRP | 0.0678
RRIRARPPRLPRPRPRPSEPPRP | 0.11
RRIRMRPPRLPRPRPRPMVKPRP | 0.0401
RRIRARPPRLPRPRPRPRATPRP | 0.581
RRIRFRPPRLPRPRPRPYWSPRP | -0.428
RRIRWRPPRLPRPRPRPAVNPRP | 0.185
RRIRSRPPRLPRPRPRPTNPPRP | -0.0555
RRIRVRPPRLPRPRPRPSDGPRP | 0.000198
RRIRIRPPRLPRPRPRPLQLPRP | -0.573
RRIRKRPPRLPRPRPRPCMHPRP | -0.0309
RRIRPRPPRLPRPRPRPLFQPRP | -0.0669
RRIRIRPPRLPRPRPRPQCRPRP | -0.0364
RRIRTRPPRLPRPRPRPQHYPRP | -0.691
RRIRRRPPRLPRPRPRPHHMPRP | -0.217
RRIRLRPPRLPRPRPRPFKCPRP | 2.83
RRIRRRPPRLPRPRPRPNHLPRP | -0.394
